B1: MYL5 (parent)
chain: FQFASIDVAGNLDYKALSYVITHG

Variants of: B1
Assay: protein stability index of a GFP-peptide fusion (GPS, HEK-293T) (PSI 1-6); higher = more stable
Conditions: c terminus: a fixed tail appended
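Note: lentivirally expressed fusions sorted by FACS into six bins by GFP to DsRed ratio, PSI derived from sequencing read proportions per bin multiplied by bin number.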

Variant | protein stability index
FQGASIDVAGNLDYKALSYVITHG | 3
FQTASIDVAGNLDYKALSYVITHG | 1.22
FQKASIDVAGNLDYKALSYVITHG | 1.43
FQVASIDVAGNLDYKALSYVITHG | 2.75
FQCASIDVAGNLDYKALSYVITHG | 2.41
FQYASIDVAGNLDYKALSYVITHG | 2.59
FQHASIDVAGNLDYKALSYVITHG | 2.11
FQPASIDVAGNLDYKALSYVITHG | 2.84
FQDASIDVAGNLDYKALSYVITHG | 1.34
FQEASIDVAGNLDYKALSYVITHG | 1.56
FQNASIDVAGNLDYKALSYVITHG | 1.36
FQAASIDVAGNLDYKALSYVITHG | 2.17
FQRASIDVAGNLDYKALSYVITHG | 1.75
FQIASIDVAGNLDYKALSYVITHG | 2.29
FQSASIDVAGNLDYKALSYVITHG | 1.93
FQMASIDVAGNLDYKALSYVITHG | 2.36
FQFASIDVAGNLDKKALSYVITHG | 2.48
FQFASIDVAGNLDAKALSYVITHG | 1.82
FQFASIDVAGNLDHKALSYVITHG | 2.1
FQFASIDVAGNLDMKALSYVITHG | 2.4
FQFASIDVAGNLDEKALSYVITHG | 1.25
FQFASIDVAGNLDNKALSYVITHG | 2.27
FQFASIDVAGNLDPKALSYVITHG | 2.28
FQFASIDVAGNLDQKALSYVITHG | 2.03

Variant | protein stability index
FQFASIDVAGNLDRKALSYVITHG | 3.3
FQFASIDVAGNLDDKALSYVITHG | 2.21
FQFASIDVAGNLDSKALSYVITHG | 2.15
FQFASIDCAGNLDYKALSYVITHG | 2.11
FQFASIDRAGNLDYKALSYVITHG | 2.8
FQFASIDSAGNLDYKALSYVITHG | 2.09
FQFASIDGAGNLDYKALSYVITHG | 3.17
FQFASIDNAGNLDYKALSYVITHG | 2.44
FQFASIDKAGNLDYKALSYVITHG | 2.17
FQFASIDEAGNLDYKALSYVITHG | 2.42
FQFASIDWAGNLDYKALSYVITHG | 2.9
FQFASIDDAGNLDYKALSYVITHG | 4.22
FQFASIDHAGNLDYKALSYVITHG | 3.1
FQFASIDMAGNLDYKALSYVITHG | 2.67
FQFASIDPAGNLDYKALSYVITHG | 2.55
FQFASIDVAGTLDYKALSYVITHG | 2.92
FQFASIDVAGDLDYKALSYVITHG | 1.17
FQFASIDVAGCLDYKALSYVITHG | 3.05
FQFASIDVAGQLDYKALSYVITHG | 5.1
FQFASIDVAGKLDYKALSYVITHG | 2.17
FQFASIDVAGSLDYKALSYVITHG | 3.23
FQFASIDVAGELDYKALSYVITHG | 2.83
FQFASIDVAGPLDYKALSYVITHG | 3.96
FQFASIDVAGWLDYKALSYVITHG | 2.82

Variant | protein stability index
FQFASIDVAGALDYKALSYVITHG | 2.52
FQFASIDVAGNLVYKALSYVITHG | 2.86
FQFASIDVAGNLTYKALSYVITHG | 2.23
FQFASIDVAGNLLYKALSYVITHG | 2.49
FQFASIDVAGNLAYKALSYVITHG | 3.41
FQFASIDVAGNLPYKALSYVITHG | 2.51
FQFASIDVAGNLNYKALSYVITHG | 3.69
WQFASIDVAGNLDYKALSYVITHG | 3.55
LQFASIDVAGNLDYKALSYVITHG | 1.89
AQFASIDVAGNLDYKALSYVITHG | 1.63
CQFASIDVAGNLDYKALSYVITHG | 3.5
QQFASIDVAGNLDYKALSYVITHG | 2.23
DQFASIDVAGNLDYKALSYVITHG | 1.43
VQFASIDVAGNLDYKALSYVITHG | 3.25
NQFASIDVAGNLDYKALSYVITHG | 1.61
SQFASIDVAGNLDYKALSYVITHG | 1.18
HQFASIDVAGNLDYKALSYVITHG | 1.79
PQFASIDVAGNLDYKALSYVITHG | 2.79
IQFASIDVAGNLDYKALSYVITHG | 3.26
GQFASIDVAGNLDYKALSYVITHG | 2.09
YQFASIDVAGNLDYKALSYVITHG | 2.68
EQFASIDVAGNLDYKALSYVITHG | 1.23
RQFASIDVAGNLDYKALSYVITHG | 1.67
TQFASIDVAGNLDYKALSYVITHG | 1.55

Variant | protein stability index
KQFASIDVAGNLDYKALSYVITHG | 1.27
FQFASIRVAGNLDYKALSYVITHG | 1.11
FQFASIGVAGNLDYKALSYVITHG | 2.38
FQFASIAVAGNLDYKALSYVITHG | 2.72
FQFASIKVAGNLDYKALSYVITHG | 2.52
FQFASIEVAGNLDYKALSYVITHG | 2.83
FQFASIYVAGNLDYKALSYVITHG | 3.46
FQFASINVAGNLDYKALSYVITHG | 2.8
FQFASICVAGNLDYKALSYVITHG | 3.48
FQFASISVAGNLDYKALSYVITHG | 3.9
FQFASIIVAGNLDYKALSYVITHG | 3.19
FQFSSIDVAGNLDYKALSYVITHG | 2.84
FQFFSIDVAGNLDYKALSYVITHG | 2.42
FQFHSIDVAGNLDYKALSYVITHG | 4.96
FQFLSIDVAGNLDYKALSYVITHG | 4.51
FQFNSIDVAGNLDYKALSYVITHG | 2.56
FQFPSIDVAGNLDYKALSYVITHG | 2.19
FQFTSIDVAGNLDYKALSYVITHG | 2.81
FQFESIDVAGNLDYKALSYVITHG | 2.51
FQFQSIDVAGNLDYKALSYVITHG | 3.96
FQFDSIDVAGNLDYKALSYVITHG | 1.9
FQFVSIDVAGNLDYKALSYVITHG | 1.99

— the supplement of paper PMC10567573
